In article PMC8212047:

Legend:
Experiment in all cases: SPR
CB6 (human) = biological target: CB6 (human)
RGN10933 (human) = biological target: RGN10933 (human)
RGN10987 (human) = biological target: RGN10987 (human)

Measured: binding relative to WT RBD

Chain of RGN10933 (human) (heavy, as listed by the source, chain 1 of 2): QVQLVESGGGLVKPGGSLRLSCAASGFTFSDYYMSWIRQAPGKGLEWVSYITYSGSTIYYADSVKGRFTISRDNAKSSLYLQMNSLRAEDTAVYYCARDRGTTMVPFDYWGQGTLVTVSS
Chain of RGN10933 (human) (light, as listed by the source, chain 2 of 2): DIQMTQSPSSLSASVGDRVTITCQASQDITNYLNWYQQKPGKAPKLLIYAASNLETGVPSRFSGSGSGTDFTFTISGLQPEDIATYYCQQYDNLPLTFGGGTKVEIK
Chain of RGN10987 (human) (heavy, as listed by the source, chain 1 of 2): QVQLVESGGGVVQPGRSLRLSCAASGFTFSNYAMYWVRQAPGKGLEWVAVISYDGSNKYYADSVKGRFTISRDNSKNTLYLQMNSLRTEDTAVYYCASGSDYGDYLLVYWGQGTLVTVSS
Chain of RGN10987 (human) (light, as listed by the source, chain 2 of 2): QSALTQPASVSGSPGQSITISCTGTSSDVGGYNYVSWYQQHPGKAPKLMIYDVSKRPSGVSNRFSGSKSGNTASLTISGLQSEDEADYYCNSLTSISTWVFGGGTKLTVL

RBD A475V-FC fusion protein (from UniProt P0DTC2)
> 50%: CB6 (human) | RGN10933 (human) | RGN10987 (human)

RBD T345I-FC fusion protein (from UniProt P0DTC2)
> 50%: CB6 (human) | RGN10933 (human) | RGN10987 (human)

RBD Y505W-FC fusion protein (from UniProt P0DTC2)
> 50%: CB6 (human) | RGN10933 (human) | RGN10987 (human)
